As usually defined, the Kd is the concentration at which binding is half-saturated.

These results are taken from PMC10502159 (2023).

One assay addresses RAGE 1-344 (Homo sapiens, UniProt Q15109). The experiment in a line: SPR.
In assay [1] the target is T1, TLR4 1-631 (Homo sapiens, UniProt O00206). The experiment in a line: SPR.
Assay [2] deals with T1, TLR4 1-631. The experiment in a line: SPR (steady state).

T1 sequence (O00206 1-631): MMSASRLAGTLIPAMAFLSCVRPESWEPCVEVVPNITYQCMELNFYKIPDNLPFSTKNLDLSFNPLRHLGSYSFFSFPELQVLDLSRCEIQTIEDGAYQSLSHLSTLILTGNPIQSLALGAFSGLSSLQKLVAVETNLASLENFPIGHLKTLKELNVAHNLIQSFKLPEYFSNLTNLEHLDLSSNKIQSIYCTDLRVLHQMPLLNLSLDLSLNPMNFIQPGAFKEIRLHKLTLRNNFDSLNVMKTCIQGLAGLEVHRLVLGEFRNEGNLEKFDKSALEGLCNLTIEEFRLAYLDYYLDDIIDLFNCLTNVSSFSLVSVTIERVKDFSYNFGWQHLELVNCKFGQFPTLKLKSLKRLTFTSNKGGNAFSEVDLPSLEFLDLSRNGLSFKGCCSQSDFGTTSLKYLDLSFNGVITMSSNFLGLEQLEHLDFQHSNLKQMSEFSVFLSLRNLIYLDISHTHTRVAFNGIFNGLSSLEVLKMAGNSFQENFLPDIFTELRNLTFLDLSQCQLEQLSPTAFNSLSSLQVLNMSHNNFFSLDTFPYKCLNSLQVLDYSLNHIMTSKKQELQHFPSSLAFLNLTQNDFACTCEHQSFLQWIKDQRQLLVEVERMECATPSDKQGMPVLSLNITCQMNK
Chain of RAGE 1-344 (Q15109 1-344): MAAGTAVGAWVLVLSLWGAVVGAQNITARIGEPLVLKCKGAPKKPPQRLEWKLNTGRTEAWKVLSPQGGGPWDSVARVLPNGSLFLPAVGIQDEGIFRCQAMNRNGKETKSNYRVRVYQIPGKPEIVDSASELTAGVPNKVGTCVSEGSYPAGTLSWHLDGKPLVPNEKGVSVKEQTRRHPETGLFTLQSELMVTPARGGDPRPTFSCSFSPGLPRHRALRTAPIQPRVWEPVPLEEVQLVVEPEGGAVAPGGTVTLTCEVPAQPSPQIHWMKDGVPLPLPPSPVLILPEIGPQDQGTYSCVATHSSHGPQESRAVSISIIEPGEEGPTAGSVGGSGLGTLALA

B1: procathepsin L (pCTS-L) 17-333 (protein)
chain: ATLTFDHSLEAQWTKWKAMHNRLYGMNEEGWRRAVWEKNMKMIELHNQEYREGKHSFTMAMNAFGDMTSEEFRQVMNGFQNRKPRKGKVFQEPLFYEAPRSVDWREKGYVTPVKNQGQCGSCWAFSATGALEGQMFRKTGRLISLSEQNLVDCSGPQGNEGCNGGLMDYAFQYVQDNGGLDSEESYPYEATEESCKYNPKYSVANDTGFVDIPKQEKALMKAVATVGPISVAIDAGHESFLFYKEGIYFEPDCSSEDMDHGVLVVGYGFESTESDNNKYWLVKNSWGEEWGMGGYVKMAKDRRNHCGIASAASYPTV
modifications: mAb20 pre-exposed
As to B1, the Kd worked out at 30.4 nM with RAGE 1-344 and 1140 nM with TLR4 1-631 [1].

B2: procathepsin L (pCTS-L) 17-333 (protein)
chain: ATLTFDHSLEAQWTKWKAMHNRLYGMNEEGWRRAVWEKNMKMIELHNQEYREGKHSFTMAMNAFGDMTSEEFRQVMNGFQNRKPRKGKVFQEPLFYEAPRSVDWREKGYVTPVKNQGQCGSCWAFSATGALEGQMFRKTGRLISLSEQNLVDCSGPQGNEGCNGGLMDYAFQYVQDNGGLDSEESYPYEATEESCKYNPKYSVANDTGFVDIPKQEKALMKAVATVGPISVAIDAGHESFLFYKEGIYFEPDCSSEDMDHGVLVVGYGFESTESDNNKYWLVKNSWGEEWGMGGYVKMAKDRRNHCGIASAASYPTV
modifications: control c-mAb pre-exposed
In the case of B2, the Kd with RAGE 1-344 amounted to 3.1 nM; in the assay with TLR4 1-631 [1], 20.3 nM.

B3: procathepsin L (pCTS-L) 17-333 (protein)
chain: ATLTFDHSLEAQWTKWKAMHNRLYGMNEEGWRRAVWEKNMKMIELHNQEYREGKHSFTMAMNAFGDMTSEEFRQVMNGFQNRKPRKGKVFQEPLFYEAPRSVDWREKGYVTPVKNQGQCGSCWAFSATGALEGQMFRKTGRLISLSEQNLVDCSGPQGNEGCNGGLMDYAFQYVQDNGGLDSEESYPYEATEESCKYNPKYSVANDTGFVDIPKQEKALMKAVATVGPISVAIDAGHESFLFYKEGIYFEPDCSSEDMDHGVLVVGYGFESTESDNNKYWLVKNSWGEEWGMGGYVKMAKDRRNHCGIASAASYPTV
B3: the Kd in the assay with TLR4 1-631 [2] was less than 28.3 nM.
